Tests used:
[1] = target: Human statherin protein (human) (UniProt P02808); assay: indirect ELISA; coat: A-Saliva (pure saliva of individual A) diluted 1:40; replicate R1
[2] = target: Human statherin protein (human) (UniProt P02808); assay: indirect ELISA; coat: A-Saliva (pure saliva of individual A) diluted 1:40; replicate R2
[3] = target: Human statherin protein (human) (UniProt P02808); assay: indirect ELISA; coat: A-Saliva (pure saliva of individual A) diluted 1:40; replicate R3
[4] = target: Human statherin protein (human) (UniProt P02808); assay: indirect ELISA; coat: B-Saliva (pure saliva of individual B) diluted 1:40; replicate R1
[5] = target: Human statherin protein (human) (UniProt P02808); assay: indirect ELISA; coat: B-Saliva (pure saliva of individual B) diluted 1:40; replicate R2
[6] = target: Human statherin protein (human) (UniProt P02808); assay: indirect ELISA; coat: B-Saliva (pure saliva of individual B) diluted 1:40; replicate R3
[7] = target: Human statherin protein (human) (UniProt P02808); assay: indirect ELISA; coat: sample 1, 50 uL saliva/100 uL in urine, diluted 1:40; replicate R1
[8] = target: Human statherin protein (human) (UniProt P02808); assay: indirect ELISA; coat: sample 1, 50 uL saliva/100 uL in urine, diluted 1:40; replicate R2
[9] = target: Human statherin protein (human) (UniProt P02808); assay: indirect ELISA; coat: sample 1, 50 uL saliva/100 uL in urine, diluted 1:40; replicate R3
[10] = target: Human statherin protein (human) (UniProt P02808); assay: indirect ELISA; coat: sample 2, 25 uL saliva/100 uL in urine, diluted 1:40; replicate R1
[11] = target: Human statherin protein (human) (UniProt P02808); assay: indirect ELISA; coat: sample 2, 25 uL saliva/100 uL in urine, diluted 1:40; replicate R2
[12] = target: Human statherin protein (human) (UniProt P02808); assay: indirect ELISA; coat: sample 2, 25 uL saliva/100 uL in urine, diluted 1:40; replicate R3
[13] = target: Human statherin protein (human) (UniProt P02808); assay: indirect ELISA; coat: sample 3, 12.5 uL saliva/100 uL in urine, diluted 1:40; replicate R1
[14] = target: Human statherin protein (human) (UniProt P02808); assay: indirect ELISA; coat: sample 3, 12.5 uL saliva/100 uL in urine, diluted 1:40; replicate R2
[15] = target: Human statherin protein (human) (UniProt P02808); assay: indirect ELISA; coat: sample 3, 12.5 uL saliva/100 uL in urine, diluted 1:40; replicate R3
[16] = target: Human statherin protein (human) (UniProt P02808); assay: indirect ELISA; coat: sample 4, 6.25 uL saliva/100 uL in urine, diluted 1:40; replicate R1
[17] = target: Human statherin protein (human) (UniProt P02808); assay: indirect ELISA; coat: sample 4, 6.25 uL saliva/100 uL in urine, diluted 1:40; replicate R2
[18] = target: Human statherin protein (human) (UniProt P02808); assay: indirect ELISA; coat: sample 4, 6.25 uL saliva/100 uL in urine, diluted 1:40; replicate R3
[19] = target: Human statherin protein (human) (UniProt P02808); assay: indirect ELISA; coat: sample 5, 3.125 uL saliva/100 uL in urine, diluted 1:40; replicate R1
[20] = target: Human statherin protein (human) (UniProt P02808); assay: indirect ELISA; coat: sample 5, 3.125 uL saliva/100 uL in urine, diluted 1:40; replicate R2
[21] = target: Human statherin protein (human) (UniProt P02808); assay: indirect ELISA; coat: sample 5, 3.125 uL saliva/100 uL in urine, diluted 1:40; replicate R3
[22] = target: Human statherin protein (human) (UniProt P02808); assay: indirect ELISA; coat: sample 6, 1.5625 uL saliva/100 uL in urine, diluted 1:40; replicate R1
[23] = target: Human statherin protein (human) (UniProt P02808); assay: indirect ELISA; coat: sample 6, 1.5625 uL saliva/100 uL in urine, diluted 1:40; replicate R2
[24] = target: Human statherin protein (human) (UniProt P02808); assay: indirect ELISA; coat: sample 6, 1.5625 uL saliva/100 uL in urine, diluted 1:40; replicate R3
[25] = target: Human statherin protein (human) (UniProt P02808); assay: indirect ELISA; coat: sample 7, 0.78125 uL saliva/100 uL in urine, diluted 1:40; replicate R1
[26] = target: Human statherin protein (human) (UniProt P02808); assay: indirect ELISA; coat: sample 7, 0.78125 uL saliva/100 uL in urine, diluted 1:40; replicate R2
[27] = target: Human statherin protein (human) (UniProt P02808); assay: indirect ELISA; coat: sample 7, 0.78125 uL saliva/100 uL in urine, diluted 1:40; replicate R3
[28] = target: Human statherin protein (human) (UniProt P02808); assay: indirect ELISA; coat: A-Saliva (pure saliva of individual A) diluted 1:40; mean of triplicate
[29] = target: Human statherin protein (human) (UniProt P02808); assay: indirect ELISA; coat: B-Saliva (pure saliva of individual B) diluted 1:40; mean of triplicate
[30] = target: Human statherin protein (human) (UniProt P02808); assay: indirect ELISA; coat: sample 1, 50 uL saliva/100 uL in urine, diluted 1:40; mean of triplicate
[31] = target: Human statherin protein (human) (UniProt P02808); assay: indirect ELISA; coat: sample 2, 25 uL saliva/100 uL in urine, diluted 1:40; mean of triplicate
[32] = target: Human statherin protein (human) (UniProt P02808); assay: indirect ELISA; coat: sample 3, 12.5 uL saliva/100 uL in urine, diluted 1:40; mean of triplicate
[33] = target: Human statherin protein (human) (UniProt P02808); assay: indirect ELISA; coat: sample 4, 6.25 uL saliva/100 uL in urine, diluted 1:40; mean of triplicate
[34] = target: Human statherin protein (human) (UniProt P02808); assay: indirect ELISA; coat: sample 5, 3.125 uL saliva/100 uL in urine, diluted 1:40; mean of triplicate
[35] = target: Human statherin protein (human) (UniProt P02808); assay: indirect ELISA; coat: sample 6, 1.5625 uL saliva/100 uL in urine, diluted 1:40; mean of triplicate
[36] = target: Human statherin protein (human) (UniProt P02808); assay: indirect ELISA; coat: sample 7, 0.78125 uL saliva/100 uL in urine, diluted 1:40; mean of triplicate
[37] = target: Human statherin protein (human) (UniProt P02808); assay: indirect ELISA; coat: A-SP-U (about 500 uL spit in 30 mL urine, individual A) diluted 1:40; replicate R1
[38] = target: Human statherin protein (human) (UniProt P02808); assay: indirect ELISA; coat: A-SP-U (about 500 uL spit in 30 mL urine, individual A) diluted 1:40; replicate R2
[39] = target: Human statherin protein (human) (UniProt P02808); assay: indirect ELISA; coat: A-SP-U (about 500 uL spit in 30 mL urine, individual A) diluted 1:40; replicate R3
[40] = target: Human statherin protein (human) (UniProt P02808); assay: indirect ELISA; coat: B-SP-U (about 500 uL spit in 30 mL urine, individual B) diluted 1:40; replicate R1
[41] = target: Human statherin protein (human) (UniProt P02808); assay: indirect ELISA; coat: B-SP-U (about 500 uL spit in 30 mL urine, individual B) diluted 1:40; replicate R2
[42] = target: Human statherin protein (human) (UniProt P02808); assay: indirect ELISA; coat: B-SP-U (about 500 uL spit in 30 mL urine, individual B) diluted 1:40; replicate R3
[43] = target: Human statherin protein (human) (UniProt P02808); assay: indirect ELISA; coat: A-SB-U (buccal swab stirred in 30 mL urine, individual A) diluted 1:40; replicate R1
[44] = target: Human statherin protein (human) (UniProt P02808); assay: indirect ELISA; coat: A-SB-U (buccal swab stirred in 30 mL urine, individual A) diluted 1:40; replicate R2
[45] = target: Human statherin protein (human) (UniProt P02808); assay: indirect ELISA; coat: A-SB-U (buccal swab stirred in 30 mL urine, individual A) diluted 1:40; replicate R3
[46] = target: Human statherin protein (human) (UniProt P02808); assay: indirect ELISA; coat: B-SB-U (buccal swab stirred in 30 mL urine, individual B) diluted 1:40; replicate R1
[47] = target: Human statherin protein (human) (UniProt P02808); assay: indirect ELISA; coat: B-SB-U (buccal swab stirred in 30 mL urine, individual B) diluted 1:40; replicate R2
[48] = target: Human statherin protein (human) (UniProt P02808); assay: indirect ELISA; coat: B-SB-U (buccal swab stirred in 30 mL urine, individual B) diluted 1:40; replicate R3
[49] = target: Human statherin protein (human) (UniProt P02808); assay: indirect ELISA; coat: sample 1, 50 uL saliva/100 uL in urine, diluted 1:40; mean minus saliva-free urine blank
[50] = target: Human statherin protein (human) (UniProt P02808); assay: indirect ELISA; coat: sample 2, 25 uL saliva/100 uL in urine, diluted 1:40; mean minus saliva-free urine blank
[51] = target: Human statherin protein (human) (UniProt P02808); assay: indirect ELISA; coat: A-SP-U (about 500 uL spit in 30 mL urine, individual A) diluted 1:40; mean of triplicate
[52] = target: Human statherin protein (human) (UniProt P02808); assay: indirect ELISA; coat: B-SP-U (about 500 uL spit in 30 mL urine, individual B) diluted 1:40; mean of triplicate
[53] = target: Human statherin protein (human) (UniProt P02808); assay: indirect ELISA; coat: sample 3, 12.5 uL saliva/100 uL in urine, diluted 1:40; mean minus saliva-free urine blank
[54] = target: Human statherin protein (human) (UniProt P02808); assay: indirect ELISA; coat: sample 4, 6.25 uL saliva/100 uL in urine, diluted 1:40; mean minus saliva-free urine blank
[55] = target: Human statherin protein (human) (UniProt P02808); assay: indirect ELISA; coat: A-SB-U (buccal swab stirred in 30 mL urine, individual A) diluted 1:40; mean of triplicate
[56] = target: Human statherin protein (human) (UniProt P02808); assay: indirect ELISA; coat: B-SB-U (buccal swab stirred in 30 mL urine, individual B) diluted 1:40; mean of triplicate
[57] = target: Human statherin protein (human) (UniProt P02808); assay: indirect ELISA; coat: sample 5, 3.125 uL saliva/100 uL in urine, diluted 1:40; mean minus saliva-free urine blank
[58] = target: Human statherin protein (human) (UniProt P02808); assay: indirect ELISA; coat: sample 6, 1.5625 uL saliva/100 uL in urine, diluted 1:40; mean minus saliva-free urine blank
[59] = target: Human statherin protein (human) (UniProt P02808); assay: indirect ELISA; coat: sample 7, 0.78125 uL saliva/100 uL in urine, diluted 1:40; mean minus saliva-free urine blank

UniProt P02808, sequence (P02808 20-62 limits assumed): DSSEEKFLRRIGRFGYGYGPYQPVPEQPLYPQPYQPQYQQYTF

Statherin Antibody (N-16), Santa Cruz Biotechnology, Inc. (Catalog No. sc-28112)
OD405 [1]: 1.21 OD405 | OD405 [2]: 1.22 OD405 | OD405 [3]: 1.24 OD405 | OD405 [4]: 0.325 OD405 | OD405 [5]: 0.289 OD405 | OD405 [6]: 0.394 OD405 | OD405 [7]: 0.171 OD405 | OD405 [8]: 0.151 OD405 | OD405 [9]: 0.144 OD405 | OD405 [10]: 0.147 OD405 | OD405 [11]: 0.114 OD405 | OD405 [12]: 0.114 OD405 | OD405 [13]: 0.161 OD405 | OD405 [14]: 0.129 OD405 | OD405 [15]: 0.12 OD405 | OD405 [16]: 0.16 OD405 | OD405 [17]: 0.14 OD405 | OD405 [18]: 0.131 OD405 | OD405 [19]: 0.132 OD405 | OD405 [20]: 0.117 OD405 | OD405 [21]: 0.114 OD405 | OD405 [22]: 0.091 OD405 | OD405 [23]: 0.083 OD405 | OD405 [24]: 0.075 OD405 | OD405 [25]: 0.069 OD405 | OD405 [26]: 0.06 OD405 | OD405 [27]: 0.057 OD405 | OD405 Mean [28]: 1.22 OD405 | OD405 Mean [29]: 0.336 OD405 | OD405 Mean [30]: 0.155 OD405 | OD405 Mean [31]: 0.125 OD405 | OD405 Mean [32]: 0.137 OD405 | OD405 Mean [33]: 0.144 OD405 | OD405 Mean [34]: 0.121 OD405 | OD405 Mean [35]: 0.083 OD405 | OD405 Mean [36]: 0.062 OD405 | OD405 [37]: 0.207 OD405 | OD405 [38]: 0.229 OD405 | OD405 [39]: 0.236 OD405 | OD405 [40]: 0.171 OD405 | OD405 [41]: 0.168 OD405 | OD405 [42]: 0.165 OD405 | OD405 [43]: 0.331 OD405 | OD405 [44]: 0.287 OD405 | OD405 [45]: 0.291 OD405 | OD405 [46]: 0.318 OD405 | OD405 [47]: 0.311 OD405 | OD405 [48]: 0.289 OD405 | OD405 Mean - Blank mean [49]: 0.125 OD405 | OD405 Mean - Blank mean [50]: 0.095 OD405 | OD405 Mean [51]: 0.224 OD405 | OD405 Mean [52]: 0.168 OD405 | OD405 Mean - Blank mean [53]: 0.107 OD405 | OD405 Mean - Blank mean [54]: 0.114 OD405 | OD405 Mean [55]: 0.303 OD405 | OD405 Mean [56]: 0.306 OD405 | OD405 Mean - Blank mean [57]: 0.091 OD405 | OD405 Mean - Blank mean [58]: 0.053 OD405 | OD405 Mean - Blank mean [59]: 0.032 OD405
